Test: yeast display, Sf9 membrane polyspecificity reagent, FACS + sequencing; frameworks hold sequencing errors
Procedure, shortened: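 Nanobodies came from a synthetic yeast display library in Saccharomyces cerevisiae BJ5465, induced with galactose for 36–48 hours and stained for 1 hour at 4 °C with 10% biotinylated, detergent-solubilized Sf9 membrane reagent. Cells were enriched on streptavidin microbeads and then FACS-sorted, with low and high (top ~1%) gates set on anti-HA fluorescence for expression and streptavidin fluorescence for reagent binding. Each polyreactivity label reflects the gate a clone came from. Genes were amplified by colony PCR, sequenced by MiSeq 2 × 250 and filtered by CDR length.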

Sequence | polyreactivity (PSR sort gate)
QVQLVESWGGLVQAGGSLRLSCAASGRIFGRYAMGWYRQAPGKERELVAAIRSTGSTNYADSVKGRFTISRDNAKNTVYLQMNSLKPEDTAVYYCAAYRRRTYAVNKEGGYWGQGTQVTVSS | high polyreactivity
QVQLVESWGGLVQAGGSLRLSCAASGSIFSVYAMGWYRQAPGKERELVAAITSGGGTKYADSLKGRFTISRDNAKNTVYLQMNSLKPEDTAVYYCAAESFSDGSPYNYWGQGTQVTVSS | low polyreactivity
QVQLVESWGGLVQAGGSLRLSCAASGSTFAGYAMGWYRQAPGKERELVAAIDWGGDSTYYADSVKGRFTISRDNAKNTVYLQMNSLKPEDTAVYYCAAYWYSRYDYDYWGQGTQVTVSS | low polyreactivity
QVQLVESWGGLVQAGGSLRLSCAASGSTFGYYAMGWYRRAPGNEMELVAALSSSSSTNYADSVKGRFTISRDNAMNTVYLQMNRLIPEETAVYYCASDPYWLHWTFDYWGQGSQVTVSS | low polyreactivity
QVQLVESWGGLVQAGGSLRLSCAASGSTFRPYAMGWYRQAPGKERELVAAFRSGRTSYADSVKGRFTISRDNAKNTVYLQMNSLKPEDTAVYYCAKASRGGYYWGQGTQVTVSS | high polyreactivity
QVQLVESWGGLVQAGGSLRLSCAASGSTFRSNAMGWYRQAPGKERELVAAITGSGGSTYYADSVKGRYTISRDNAKNTVYLQMNSLKPEDTAVYYCWGLGTQVTVSS | low polyreactivity
QVQLVESWGGLVQAGGSLRLSCAASGSTFYRYAMGWSRQAPGKERELVAAINTGGSTNYADSVKGRFTISRDNAKNTVYLQMNSLKPEDTAVYYCAARFQYYRKYDYWGQGTQVTVSS | low polyreactivity
QVQLVESWGGLVQAGGSLRLSCAASGSTSVYYAMGWYRQTPGKERELVDAITWDDGSTSYADSVKGRFTISRDNAKNTVYLQMNSLKPEDTEVYYCAKDYEYLGAFNYWGQGTQVTGSS | low polyreactivity
QVQLVESWGGLVQAGGSLRLSCADSGYIYDHYDMGWYRQAPGKDRELVAAISRSAGSTYYADSVKGRFTITRDNAKNTVYLQMNSLKPEDSAVYYCAADGKYYHRRPGWPIYDYWGQGTQVTVSS | high polyreactivity
QVQLVESWGGLVQAGGSLRLSCADSGYTFYTNAMGWYREAPGKERELVAAISIGGNTNYADSVKGRFTISRDNAKNTVYLQMNSLKPEDTAVYYCAKAWSGISSRDYDLDYWGQGTQVTVSS | low polyreactivity
QVQLVESWGGLVQAGGSLRLSCGASGYSFQPYTMGWYRQAPGKERELVAAISKSGTRTYYADSVKGRFTISRDNAKNTVYLQMNSLKPEDTAVYYCAARYTGNLFDYWGQGTQVTVSS | high polyreactivity
QVQLVESWGGLVQAVGSLRLTCAASGVIFAIYAIGLYRQAAGKEREMVSSIRWSSGRTYYPDSVKGRFTISRDNAKNTVYLQMNSLKPEDTAVYNCAATPSIFTIHRQDYDYWGQGTQVTVSS | high polyreactivity
QVQLVESWGGLVQPGGSLRLRCAASGLIFGRNAMGWYRQAPGKERELVAAISWSGGSTYYADSVKGRFTISRDNAKNTVYLQMNSLKPEDTAVYYCYRYRYYGSEDDYWGQGTQVTVSS | high polyreactivity
QVQLVESWVGLVQAGGSLRLSCAASGNTFKYYDMGWYRQAPGKERELVATISRTAGSTYYADSVKGRFSISRDYAKNTVYLQMNSLKPEDTAVYYCNKDRGHPFKYDYWGQGTQVTVSS | low polyreactivity
QVQLVETGAGLVQAGGSLRLSCAASGRTYVYNAMGWYRQAPGKERELVAAIDGGGDRTYYADSVKGRFTISRDNAKNTVYLQMNSRKPEDTAVYYCARDQGDTYYYSYPEGDYWGQGTQVTVSS | low polyreactivity
QVQLVETGAGLVQAGGSLRLSSAASGFIFYPYAMGWYRQAPGKERELVAVINKSSDNTYYADSVKGRFTISRDNAKNTVYLQMNSLKPEDTAVYYCAAEYVFYSRFFTEEYWGQGTQVTVSS | low polyreactivity
QVQLVETGGGIVQAGASLRLSCAASGRIFPPYAMGWYRQAPGKERELVAAISSSGGSTYYADSVKGRFTISRDNGKNTVYLQMNSLKPEDTAVYYCATFFARGYNSWGQGTQVTVSS | high polyreactivity
QVQLVETGGGIVQAVGSLRLSCAASGSTFGWNAMGWNRQAPGKERELVAVISSDGRTYYADSVKGRFTISRDNAKNTVYLQMISLKPEDTAVYYCAKRAWGFGGYDYWGQGTQVTVSS | low polyreactivity
QVQLVETGGGLFQAGGSLRISCAASGFIFTLYAMGWYRQAPGKERELVAAINSGGSTDYADSVKGRFTISRDNAKNTVYLQMNSLKPEDTAVYYCAAGNTYAGSDYWGQGTQVTVSS | low polyreactivity
QVQLVETGGGLVQAGGRLRLSCAASGRILPGNAMGWSRQAPGKERELVAAISSGGRTNYADSVKGRFTISRDNAKNTVYLQMNSLKPEESAVYYCAKRTVWWSNWHYYPPTYNYWGQGTQVTVSS | high polyreactivity
QVQLVETGGGLVQAGGRLRLSCAASGSIFPDYDMGWYRQAPGKQRELVAAISSSGDSTYYADSVKGRFTISRDNAKNTVYLLMNSLKPEDTAVYYCAVDGTRSTSNGSEFTGYNYWGQGTQVTVSS | low polyreactivity

Sequence | polyreactivity (PSR sort gate)
QVQLVETGGGLVQAGGSLRISCAASGRIFGWYAMGWYRQAPGKERELVAGINYGGGRTYYADSVKGRFTISRDNAKNTVYLQMNSLKPEDTAVYYCAAGISGHYYWGQGTQVTVSS | high polyreactivity
QVQLVETGGGLVQAGGSLRISCAPSGRTFRNNDMAWYRQAPGTEREFVAVISNTGGSTYYADSVKGRFTNSRDNAKNTVYLQMNSLKPEDTAVYYCAVRPRYSQYYYWGQGTQVTVSS | high polyreactivity
QVQLVETGGGLVQAGGSLRISCAPSGSTFAGYAMGWYRQAPGKERELVAAISYSGGTTYYADSVKGRFTISRDNAKNTVYLQMNSLKPEDTAVYYCAARKKYKTPSNDMYYWGQGTQVTVSS | high polyreactivity
QVQLVETGGGLVQAGGSLRLICAASGRIFTWYAMGWYRQGPGKERELVATNSYNGGRTYYADSVKGRFTISRDNAKNTVYLQMNSLKPEDNAVYYCNTVPVGSVSHGLDSRFGYWGQGTQVTVSS | high polyreactivity
QVQLVETGGGLVQAGGSLRLICAASGSTFQNNAMGCYIQAPGKERELVAAIRFSGGSTYYADSVKGRFTISRDNAKNTVYLQMNSLKPEDTAVYYCNAVVKRWSDYSYPVRYDYWGQGTQVTVSS | high polyreactivity
QVQLVETGGGLVQAGGSLRLRGAASGSTNYNYAMGWYRQAPGKERELVAAISISGGSPYYADSVKGRFTISRDNANNTVYLQMYSLKAEDTAVYYCAAVRLGSRGGYCGQGTQVTVSS | high polyreactivity
QVQLVETGGGLVQAGGSLRLSCAASGCTFKYNTMGWYRQAPGKERELVAAITSGGGSTNYADSVKGRFTISRDNAKNTVYLQMNSLKPEDTAVYYCAAYRRNTYWGQVTQVTVSS | high polyreactivity
QVQLVETGGGLVQAGGSLRLSCAASGFIFRKYAMGWYRQAPGKERELVAAITASGGSTYYADSVKGRFTISRDNAKNTVYLQMNSLKPEDTAVYYCATDYHGAERWLKYVYWGQGTQVTVSS | high polyreactivity
QVQLVETGGGLVQAGGSLRLSCAASGFIFVKYAMGWYRQAPGKERELVAAITTSGTGTFYADSVKGRFTISRDNAKNTVYLQMNSLKPVDTAVYYCNALGHPGDDWGQVTQVTVSS | low polyreactivity
QVQLVETGGGLVQAGGSLRLSCAASGFTFASYAMGWYRQAPGKERELVAAITWGTGTTSYADSVKGRFTISRDNAKNTVYLQMNSLKPEDTAVYYCATRYRQITYRRRYDYWGQGTQVTVSS | low polyreactivity
QVQLVETGGGLVQAGGSLRLSCAASGFTFGSNAMGWYRQAPGKEREFVAAITYSGGGTYADSVKGRFTISRDNAKHTVDLQMNSLKPEDTAVYYCATDAYRWHYWNFGFGYWGQGTQVTVSS | high polyreactivity
QVQLVETGGGLVQAGGSLRLSCAASGFTFNNYAMGWYRQAPGTERELVAAISWSGGRTYYPDSVMGRFTISSDNAKNTVYLQMNSLNTEDTAVYYCAADFSGSVDYWGQGTQVTVSS | high polyreactivity
QVQLVETGGGLVQAGGSLRLSCAASGFTFPYNAMGWYRQAPGKERELVAAISSTGGITYYADSVKGRFTISRDNAKNTVYLQMNSLKPEDTAVYYCGWYDYWGQGTQVTVSS | low polyreactivity
QVQLVETGGGLVQAGGSLRLSCAASGGSFTYNALGWDRQSPGKERALVAAITDSGGSTFADSVKGRFTISRDIAKNNVYLQMNSLKPEDTAVYYCAAGDGDTGSMYLRKLSDYWGQGTQVTVSS | low polyreactivity
QVQLVETGGGLVQAGGSLRLSCAASGITFAYNTMGWYIQAPGKERELVAGISFSGASTYYADSVKGRFTISRDYAKNTVYLQMNSLKPEDTAVYDCAAPRWVANQYREYDYWGQGTQVTVSS | high polyreactivity
QVQLVETGGGLVQAGGSLRLSCAASGITFWYYAMGWYIQAPGKERELVAAITSGGSTYYADSVKGRFTISRDNAKNTVYLQMNSLKPEDTAVYYCAKDSVWGAKNLTSYKYYYWGQGTQVTVSS | low polyreactivity
QVQLVETGGGLVQAGGSLRLSCAASGITITVYAMGWYRQAPGKERELVAAINSGSSTNYADSVKGRFTISRDNAKNTVYLQMNSLKTEVTAVYYCDASYRTLPDKKRYCYWGQGTQVTVSS | high polyreactivity
QVQLVETGGGLVQAGGSLRLSCAASGLTFIEYAMGWYRQAPGKERELVAAISSGGRTYYADSVKGRFTISRDNAKNTVYLQMNSLKPEDTAVYYCNARGYRRWYNYWGQGTQVTVSS | high polyreactivity
QVQLVETGGGLVQAGGSLRLSCAASGLTFRGYAKGWYIQAPGKERELVARITIGSSTNYADSVKGRFTISRDIAKNTVYLQMNSLKQEDSAVYYCAADKPGQFTPSYNKIYDYWGQGTQVTVSS | low polyreactivity
QVQLVETGGGLVQAGGSLRLSCAASGLTFYVYAMGWYRQAPGKERELVAAISSGGRTYYADSVKGRFTISRDNAKNTVYLQMNSLKPEDTAVYYCAAVRHRNYGYWGQGTQVTVSS | high polyreactivity
